Measured values: patent US20220056072A1

Legend:
[1] = biological target: High Capacity NeutrAvidin Agarose Resin (UniProt P02701); experiment: pull-down on NeutrAvidin Agarose resin, SDS-PAGE of the fractions
[2] = biological target: High Capacity NeutrAvidin Agarose Resin (UniProt P02701); experiment: pull-down on NeutrAvidin Agarose resin, 1 uM protein, 2 hrs at 4 C; bound fraction from A280 of flow-through and wash

UniProt P02701, sequence (P02701 25-152): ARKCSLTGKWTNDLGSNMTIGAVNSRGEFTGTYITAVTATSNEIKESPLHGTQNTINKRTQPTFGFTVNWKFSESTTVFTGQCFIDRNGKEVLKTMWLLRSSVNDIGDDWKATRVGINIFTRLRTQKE

| Substance | percent unbound [1] | binding efficiency (percent of protein bound to resin) [2] |
| --- | --- | --- |
| IPL biotin-labeled mRuby3 | 35% | 65% |
| unlabeled mRuby3 | – | 10% |
